Measured values from patent US10413588B2, “Probiotic function of human intelectin” (Wisconsin Alumni Research Foundation, priority 2015, dated 2019).
Entries after “also recorded” stand apart in the source; their conditions may differ.

Tests used:
[1] = hIntL-1 surface plasmon resonance (SPR); type: binding
Procedure: All hIntL-1 SPR was performed on a ProteOn XPR36 (Bio-Rad) at the University of Wisconsin-Madison Department of Biochemistry Biophysics Instrumentation Facility (BIF). To measure hIntL-1 binding, ProteOn NLC sensor chips (Bio-Rad) (NeutrAvidin coated chips) were used to capture carbohydrate-biotin ligand. All experiments presented here were conducted at surface saturated levels of ligand, ˜200 RU. In all experiments, captured biotin served as a control. Samples containing purified hIntL-1 were prepared by serial dilution into hIntL-1 SPR running buffer (20 mM HEPES (7.4) 150 mM NaCl, 1 mM CaCl2, and 0.005% tween-20). Surfaces were regenerated with short injections of 10 mM HCl. All data was interspot corrected and processed using the Bio-Rad ProteOn software package.

[2] = hIntL-1 carbohydrate binding ELISA-like assay
[3] = CFG mammalian glycan array v5.1; type: binding; settings: hIntL-1 at 50 and 200 μg/ml
[4] = hIntL-1 carbohydrate binding ELISA-like assay; remark: listed apart in the source
Procedure: To fabricate carbohydrate-displaying surfaces, 0.5 μg of streptavidin (Prozyme, cat. no. SA20) was adsorbed onto a Maxisorp (Nunc) flat bottom 96 well plate in PBS. Wells were washed with PBS and then coated with 5 μM of carbohydrate-biotin ligand in PBS for 1 hour at 22° C. Wells were blocked with bovine serum albumin (BSA) in ELISA buffer (20 mM HEPES (7.4) 150 mM NaCl, 10 mM CaCl2, and 0.1% tween-20). Samples containing hIntL-1 were prepared by serial dilution into ELISA buffer+0.1% BSA and added to wells for 2 hours at 22° C. Wells were washed four times with ELISA buffer. Bound hIntL-1 was detected using 0.75 μg/mL of a sheep IgG hIntL-1 antibody (R&D Systems, cat. no. AF4254) in ELISA buffer+0.1% BSA for 2 hours at 22° C. Wells were washed with ELISA buffer. A donkey anti-sheep IgG horseradish peroxidase (HRP) conjugate (Jackson ImmunoResearch Laboratories) was added at a 1:5,000 dilution in ELISA buffer+0.1% BSA for 1 hour at 22° C. Wells were washed and hIntL-1 was detected colorimetrically with addition of 1-Step Ultra TMB-ELISA (Pierce). Once sufficient signal was achieved (typically <2 min.), the reaction was quenched with addition of equal volume 2 M H2SO4. Plates were read at 450 nm on an ELx800 plate reader (Bio-Tek). When testing the Ca^2+ dependency of hIntL-1, 1 mM EDTA replaced 10 mM CaCl2 in all steps. Data were analyzed on Prism6 (GraphPad). […]

[5] = test system: adult male fecal microbiome; experiment: Flow cytometry binding to adult fecal microbiome; set-up: species or system human; settings: adult fecal sample, 15 μg/mL Strep-tagged-hIntL-1, 10 mM CaCl2
Procedure: Human fecal samples provide a non-invasive proxy of the intestinal microbiome of a patient. The inventors have isolated the intestinal microbiome from human fecal samples and analyzed it for hIntL-1 binding. The isolated microbiome was fixed using an aqueous solution of 1% formaldehyde. Cells were stained as described elsewhere, using either a solution including calcium ions (100 mM) or one containing the calcium ion chelator EDTA. Microbes were exposed to 20 mM HEPES (pH 7.2), 150 mM NaCl, 10 mM CaCl2, 15 μg/mL Strep-tagged-hIntL-1, 0.1% bovine serum albumin (BSA), 0.05% tween-20, 2 μg/mL StrepMAB Classic conjugated to Oyster 645 (IBA Lifesciences, cat. no.: 2-1555-050). To test for a role for calcium ions, cells were exposed to a solution of 20 mM HEPES (pH 7.2), 150 mM NaCl, 1 mM EDTA, 15 μg/mL Strep-tagged-hIntL-1, 0.1% bovine serum albumin (BSA), 0.05% tween-20, 2 μg/mL StrepMAB Classic Conjugated to Oyster 645 (IBA Lifesciences, cat. no.: 2-1555-050). Cells are analyzed consecutively on a BD LSRII flow cytometer using identical instrument setting. Unstained cells, cells stained in the presence of calcium ions (10 mM), and cells stained in the presence of EDTA were directly compared. […]

B1: hIntL-1: human lectin intelectin-1, accession no. Q8WWA0; recombinant disulfide-linked trimer from HEK 293T cells, used also N-terminally Strep-tagged (Strep-hIntL-1) (protein, listed as Homo sapiens)
chain: MNQLSFLLFLIATTRGWSTDEANTYFKEWTCSSSPSLPRSCKEIKDECPSAFDGLYFLRTENGVIYQTFCDMTSGGGGWTLVASVHENDMRGKCTVGDRWSSQQGSKAVYPEGDGNWANYNTFGSAEAATSDDYKNPGYYDIQAKDLGIWHVPNKSPMQHWRNSSLLRYRTDTGFLQTLGHNLFGIYQKYPVKYGEGKCWTDNGPVIPVVYDFGDAQKTASYYSPYGQREFTAGFVQFRVFNNERAANALCAGMRVTGCNTEHHCIGGGGYFPEASPQQCGDFSGFDWSGYGTHVGYSSSREITEAAVLLFYR
- SPR response to immobilized β-galactopyranose ([1]; attributed to the extended anomeric alkyl linker): small response
- binding to immobilized β-Galf by SPR ([1]; immobilized carbohydrate-biotin ligand, 1 mM CaCl2): robust binding
- binding to β-Galf on addition of EDTA ([2]; hIntL-1 conditioned HEK culture media, addition of 25 mM EDTA): completely abolished binding
- Kd ([2]; trimeric hIntL-1, ELISA-like assay, 10 mM CaCl2, read-out: avidity (apparent Kd) for immobilized β-Galf): 85 ± 14 nM
- binding to human glycan ligands on CFG mammalian glycan array [3]: none are bound by hIntL-1 with appreciable affinity
- binding to immobilized α-Neu5Ac [4]: lack of affinity; also recorded: does not bind
- fraction of bacteria of the human microbiome bound by hIntL-1 [5]: approximately 25%
